Measurements reported in patent publication US7871610B2, “Antibodies to Tie1 ectodomain” (Dyax Corp., priority 2003, dated 2011).
“Also recorded” adds a separate entry of the source.

Assays:
[1] = molecular target: T1, Tie1-EpoR chimeric receptor (UniProt P14753+P35590); assay: Ba/F3 bioassay (Tie1/EpoR chimeric BaF3 cell assay), MTT viability; assay type: cell-based, human; conditions: 100 ng/ml E3 IgG together with 100 (1:1) or 500 (1:5) ng/ml of the other antibody
T1 construct: the PCR amplified extracellular part of human Tie1 (bp 37-2316 of X60975); expressed in transfected cells
T1 sequence (P35590+P14753 with tags, fused parts or gaps): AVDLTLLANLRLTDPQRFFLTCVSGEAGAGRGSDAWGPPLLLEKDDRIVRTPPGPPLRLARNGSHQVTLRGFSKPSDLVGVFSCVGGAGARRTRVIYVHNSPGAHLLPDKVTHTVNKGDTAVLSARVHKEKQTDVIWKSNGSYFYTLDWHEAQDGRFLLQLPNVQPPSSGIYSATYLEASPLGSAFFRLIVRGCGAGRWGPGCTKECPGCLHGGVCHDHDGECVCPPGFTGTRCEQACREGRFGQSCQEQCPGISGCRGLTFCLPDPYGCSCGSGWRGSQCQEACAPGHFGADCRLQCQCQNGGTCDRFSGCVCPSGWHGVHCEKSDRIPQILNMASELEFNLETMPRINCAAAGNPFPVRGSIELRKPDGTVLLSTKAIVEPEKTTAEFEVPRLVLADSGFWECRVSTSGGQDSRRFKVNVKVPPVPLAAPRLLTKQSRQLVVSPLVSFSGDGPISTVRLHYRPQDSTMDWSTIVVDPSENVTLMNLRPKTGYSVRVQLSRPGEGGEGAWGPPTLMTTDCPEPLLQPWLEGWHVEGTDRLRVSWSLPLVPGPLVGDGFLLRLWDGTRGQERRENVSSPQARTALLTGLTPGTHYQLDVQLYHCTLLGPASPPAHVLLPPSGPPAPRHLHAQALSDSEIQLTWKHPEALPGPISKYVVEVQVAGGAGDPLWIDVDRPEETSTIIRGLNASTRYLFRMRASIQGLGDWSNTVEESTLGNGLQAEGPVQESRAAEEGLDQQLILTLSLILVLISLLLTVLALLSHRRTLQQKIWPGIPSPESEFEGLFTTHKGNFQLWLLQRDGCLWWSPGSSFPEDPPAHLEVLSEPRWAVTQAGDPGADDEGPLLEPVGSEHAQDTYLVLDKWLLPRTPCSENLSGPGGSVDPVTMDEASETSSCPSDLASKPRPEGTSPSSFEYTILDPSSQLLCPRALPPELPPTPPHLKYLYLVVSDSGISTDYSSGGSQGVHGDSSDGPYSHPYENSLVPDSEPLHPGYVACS
Excerpt: To generate Tie1-EpoR expressing Ba/F3 cells for the bioassay, Ba/F3 pre-B cells were stably transfected with a nucleic acid that expresses chimeric receptor containing the extracellular domain of human Tie1 fused with the transmembrane and cytoplasmic domains of the mouse erythropoietin receptor. The nucleic acid used was a Tie1-EpoR chimeric cDNA in a pEF-BOS expression vector. The nucleic acid encoding the chimeric receptor was constructed by cloning the PCR amplified extracellular part of human Tie1 (bp 37-2316 of X60975) as EcoRI-BglII fragment into mEpoR-pcDNA vector. The cDNA encoding for the chimeric receptor consisting of the extracellular part of Tie1 fused with the transmembrane and intracellular domains of EpoR was subcloned into the pEF-BOS expression vector. Vector was linearized and co-transfected into Ba/F3 cells with pcDNA3.1(+) Zeo vector (Invitrogen). Stable cell pools were generated by selection with 250 μg/ml Zeocin. The expression of Tie1/EpoR fusion protein in several clones was analyzed by Western blotting with an antibody against EpoR.
To perform the assays, Ba/F3 cells expressing the Tie 1-EpoR chimera were split in 96-well microtiter plates at 50 000 cells/well in the presence of the indicated concentrations of anti-Tie1 antibodies. As controls, Zeocin resistant pools not expressing the Tie1-EpoR were used. After 48 h, the viability of the cells was determined by adding MTT (3-(4,5-dimethylthiazol-2-yl)-2,5-diphenyl tetrazolium bromide (Sigma), 0.5 mg/ml), followed by further 2 h of culture, addition of an equal volume of cell lysis solution (10% SDS, 10 mM HCl) and incubation overnight at 37° C. Absorbance was measured at 540 nm.
Although no ligand for Tie1 has been identified, we used the following efficient screening method for Tie1-binding proteins. Interleukin-3 dependent pre-B-lymphocyte (Ba/F3) cells were transfected with a construct that expresses a Tie1-EpoR fusion protein. Since Ba/F3 cells are IL-3 dependent, they die unless IL-3 is provided. However, Tie-EpoR receptor expressing Ba/F3 cells can survive and proliferate if the medium contains a Tie1-binding protein, either a natural ligand or an artificial mimetic. Cell survival can be quantitated, e.g., by colorimetric MTT-assay, which measures mitochondrial activity.

[2] = molecular target: Tie1 (Homo sapiens, UniProt P35590); assay: Immunohistochemistry of matched human tumor and normal tissue sections; parameters: from tissue; host or cells: fresh frozen normal and tumor tissue (e.g. lung, kidney, skin, breast); conditions: fresh frozen tissue
Tie1, sequence (P35590 22-1138): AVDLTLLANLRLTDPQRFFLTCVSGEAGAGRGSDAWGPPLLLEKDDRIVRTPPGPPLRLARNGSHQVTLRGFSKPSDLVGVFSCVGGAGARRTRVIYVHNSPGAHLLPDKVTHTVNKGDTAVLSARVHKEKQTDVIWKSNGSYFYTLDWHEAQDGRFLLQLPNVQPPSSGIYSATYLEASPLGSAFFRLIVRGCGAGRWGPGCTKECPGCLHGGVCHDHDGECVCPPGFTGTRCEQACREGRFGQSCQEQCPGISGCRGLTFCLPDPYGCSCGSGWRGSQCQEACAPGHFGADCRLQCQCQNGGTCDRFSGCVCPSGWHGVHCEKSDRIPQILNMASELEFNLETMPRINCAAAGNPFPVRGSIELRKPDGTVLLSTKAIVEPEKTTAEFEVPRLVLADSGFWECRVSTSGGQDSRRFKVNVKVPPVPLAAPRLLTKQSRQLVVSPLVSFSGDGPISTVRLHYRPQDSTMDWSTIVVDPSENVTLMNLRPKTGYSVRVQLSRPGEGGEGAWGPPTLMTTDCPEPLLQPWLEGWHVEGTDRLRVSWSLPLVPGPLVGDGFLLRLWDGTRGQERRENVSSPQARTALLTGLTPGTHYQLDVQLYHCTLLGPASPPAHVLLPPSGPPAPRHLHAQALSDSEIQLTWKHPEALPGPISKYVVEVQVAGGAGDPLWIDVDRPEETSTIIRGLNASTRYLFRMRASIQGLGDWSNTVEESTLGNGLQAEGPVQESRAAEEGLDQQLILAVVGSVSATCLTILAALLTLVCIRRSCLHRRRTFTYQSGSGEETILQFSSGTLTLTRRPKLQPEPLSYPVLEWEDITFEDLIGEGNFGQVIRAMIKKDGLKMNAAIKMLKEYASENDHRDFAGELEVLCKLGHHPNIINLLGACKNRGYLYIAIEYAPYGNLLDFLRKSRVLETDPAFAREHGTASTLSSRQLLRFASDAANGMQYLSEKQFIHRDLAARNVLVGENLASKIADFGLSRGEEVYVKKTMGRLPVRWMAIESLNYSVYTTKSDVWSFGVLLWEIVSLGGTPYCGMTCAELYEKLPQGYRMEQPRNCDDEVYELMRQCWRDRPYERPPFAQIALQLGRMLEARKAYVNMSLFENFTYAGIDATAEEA
Method: The Tie-1 antibodies were biotinylated using the EZ-link Sulfo-NHS-SS-Biotin (Pierce, Cat. 21331). For Tie-1/Fc and Tie-1-His, the reaction was performed for 2 hours on ice in 50 mM sodium carbonate buffer, pH 9.6, in the presence of a 5-fold molar excess of biotinylating agent. For the antibodies, the reaction was performed for 2 hours on ice in PBS, in the presence of a 15-fold molar excess of EZ-link Sulfo-NHS-SS-Biotin. The reaction was stopped by the addition of Tris-HCl, pH 7.5 (50 mM final concentration) followed by a 1-hour incubation on ice. Samples were then dialyzed against PBS.
Various normal and tumor tissue sections were stained with biotinylated antibodies. A mouse monoclonal anti-Tie1 antibody (7e8) (Alitalo laboratory, University of Helsinki) was used as a positive control. Sections without primary antibody served as negative control. All samples were fresh frozen tissues and staining was performed with the TSA-kit (Perkin-Elmer Life Sciences). After acetone fixation (10-20 min, −20° C.) the slides were treated with 0.73% H2O2 for 10 min to reduce endogenous peroxidase activity followed by blocking for 30 min with TNB buffer. Sections ([…] thick) were incubated with primary antibodies (10 μg/ml) overnight at 4° C. Sections with the mouse monoclonal anti-tie1 antibody (7e8) were treated with biotinylated anti-mouse antibodies (VectaStain) before the addition of streptavidin-HRP. Signal was amplified by using a TSA kit and the visualized by AEC (235 ml NaAc, 15 ml AEC (stock solution: 1600 mg 3-amino-9-ethyl-carbazole and 480 ml N-dimethylformamide), 250 μl H2O2).

B1: B2: anti-Tie1 antibody; VH SEQ ID NO:64, VL SEQ ID NO:66 (antibody, V domains shown)
VH: EVQLLESGGGLVQPGGSLRLSCAASGFTFSIYGMAWVRQAPGKGLEWVSVISPSGGQTFYADSVKGRFTISRDNSKNTLYLQMNSLRAEDTAVYYCARVYYYGMDVWGQGTTVTVSSASTKGPSVFP
VL: HSAQDIQMTQSPATLSLSPGERATLSCRASQSVSSYLAWYQQKPGQAPRLLIYDASNRATGIPARFSGSGSETDFTLTISSLEPEDFAVYYCQQRSKWPRTFGQGTKLEIK
modifications: Synthetically generated peptide
effect on the survival effect of E3 IgG in Tie1-EpoR Ba/F3 assay [1]: completely blocked the viability; also recorded: blocked completely the survival effect of E3 IgG; also recorded: counteract the agonistic activity of E3
staining of breast carcinoma ([2]; 10 μg/ml): stained also other structures in addition to vessels
staining of kidney ([2]; 10 μg/ml): only very faint staining of either tubules or vessels
staining of lung carcinoma ([2]; 10 μg/ml): stained structures other than vessels
staining of melanoma tissue ([2]; 10 μg/ml): also stained other surrounding structures
staining of normal lung (large veins) ([2]; 10 μg/ml): did not stain the same veins
staining of normal skin ([2]; 10 μg/ml): stained blood vessels very faintly
staining of vessels in normal tissues (tissue specificity) ([2]; biotinylated IgG 10 μg/ml): stained vessels very faintly in other normal tissues than in the breast

B2: A2: anti-Tie1 antibody; VH SEQ ID NO:56, VL SEQ ID NO:58; not the anti-streptavidin A2-SV (antibody, V domains shown)
VH: EVQLLESGGGLVQPGGSLRLSCAASGFTFSRYTMMWVRQAPGKGLEWVSGIYPSGGVTLYADSVKGRFTISRDNSKNTLYLQMNSLRAEDTAVYYCARVNYYDSSGYGPIAPGLDYWGQGTLVTVSSASTKGPSVFP
VL: HSAQDIQMTQSPGTLSLSPGERATLSCRASRSVIISYVAWYQQKPGQAPRLLIYGASTRATGIPDRFSGSGSGTDFTLTISRLEPEDFAVYFCQLYGRSPRIIFGQGTRLEIK
modifications: Synthetically generated peptide
notes: anti-Tie1 antibody; not the anti-streptavidin A2-SV
effect on the survival effect of E3 IgG in Tie1-EpoR Ba/F3 assay [1]: inhibited the viability effect of E3 IgG to some extent

B3: A10: anti-Tie1 antibody; VH SEQ ID NO:60, VL SEQ ID NO:62 (antibody, V domains shown)
VH: EVQLLESGGGLVQPGGSLRLSCAASGFTFSNYVMVWVRQAPGKGLEWVSGIYPSGGHTKYADSVKGRFTISRDNSKNTLYLQMNSLRAEDTAVYYCARVNYYDSSGYGPIAPGLDYWGQGTLV
VL: HSAQDIQMTQSPGTLSLSPGERATLFCRASQRVTSNSLAWYQQRPGQAPRLLIYDASTRATGIPDRFSGSGSGRDFTLTISRLEPEDFAVYYCQRYGSSVLYSFGQGTKLEIT
modifications: Synthetically generated peptide
effect on the survival effect of E3 IgG in Tie1-EpoR Ba/F3 assay [1]: inhibited the viability effect of E3 IgG to some extent

B4: P-B3: anti-Tie1 antibody; VH SEQ ID NO:24, VL SEQ ID NO:26 (antibody, V domains shown)
VH: EVQLLESGGGLVQPGGSLRLSCAASGFTFSRYGMHWVRQAPGKGLEWVSVISPSGGMTYYADSVKGRFTISRDNTKNTLYLQMNSLRAEDTAVYYCARVGATGPFDIWGQGTMVTVSSASTKGPSVFPLAP
VL: QDIQMTQSPATLSLSPGERATLSCRASQSVSTYLAWYQQKPGQAPRLLIYDASNRATGIPGRFSGSGSGTDFTLTISSLEAEDFAVYYCQQRSSWPITFGQG
modifications: Synthetically generated peptide
effect on the survival effect of E3 IgG in Tie1-EpoR Ba/F3 assay [1]: inhibited the viability effect of E3 IgG to some extent

B5: P-C6: anti-Tie1 antibody; VH SEQ ID NO:28, VL SEQ ID NO:30 (antibody, V domains shown)
VH: EVQLLESGGGLVQPGGSLRLSCAASGFTFSHYGMTWVRQAPGKGLEWVSVISPSGGQTGYADSVKGRFTISRDNSKNTLYLQMNSLRAEDTAVYYCAGGGYAAFDYWGQGTLVTVSSASTKGPSVFPLAPSSKSTSGGTAALG
VL: QDIQMTQSPATLSLSPGERATLSCRASQSVSSYLAWYQQKPGQAPRLLIYDASNRATGIPARFSGSGSGTDFTLTISSLEPEDFAVYYCQQRSNWPLTFGGG
modifications: Synthetically generated peptide
effect on the survival effect of E3 IgG in Tie1-EpoR Ba/F3 assay [1]: inhibited the viability effect of E3 IgG to some extent

B6: G2: anti-Tie1 antibody; HC SEQ ID NO:110, LC SEQ ID NO:112 (antibody)
heavy: EVQLLESGGGLVQPGGSLRLSCAASGFTFSSYKMGWVRQAPGRGLEWVSSIYPSGGWTHYADSVKGRFTISRDNSKNTLYLQMNSLRAEDTAVYYCARVLLHYFDYWGQGTLVTVSSASTKGPSVFPLAPSSKSTSGAQRPWAAWSRTTSRDTGDGV
light: QSVLTQPASVSGSPGQSITISCTGTSSDVGGYKYVSWYQQHPGKAPKLIISDVNNRPSGVSDRFSGSKSGNTASLTISGLQAEDDGDYYCSSYASSSYTSSTTWVFGG
modifications: Synthetically generated peptide
effect on the survival effect of E3 IgG in Tie1-EpoR Ba/F3 assay [1]: promoted the survival

B7: C7: anti-Tie1 antibody; VH SEQ ID NO:76, VL SEQ ID NO:78 (antibody, V domains shown)
VH: EVQLLESGGGLVQPGGSLRLSCAASGFTFSRYVMYWVRQAPGKGLEWVSVIYPSGGATYYADSVKGRFTISRDNSKNTLYLQMNSLRAEDTAVYYCARRGSSGAFDYWGQGTLVTVSSASTKGPSVFP
VL: HSAQSVLTQPASVSGSPGQSITISCTGTSSDIGRYNYASWYQQRPGKSPKLLIYEVSDRPSGVSNRFSGSKSGNTASLIISGLQAEDEADYYCSSYSSTNSLQVVFGGGTKLSVLGQPKAAPSVTLFPPSSEELQANKATLVCL
modifications: Synthetically generated peptide
effect on the survival effect of E3 IgG in Tie1-EpoR Ba/F3 assay [1]: promoted the survival
